Test results taken from article PMC7308080, “The His-Gly motif of acid-sensing ion channels resides in a reentrant ‘loop’ implicated in gating and ion selectivity” (eLife, 2020).

Target: the molecule itself
Experiment: cryo-EM structure; single-particle cryo-EM of purified cASIC1-SMA at ~1 mg/ml, pH adjusted to 7.0 with MES pH 6.0, TBS with 1 mM DTT; low pH desensitized state; C3 symmetry in the final refinement

B1: full-length chicken acid-sensing ion channel 1 (cASIC1) solubilized in styrene maleic acid copolymer (natural protein, Gallus gallus (chicken), UniProt Q1XA76 1-527, looked up)
chain: MMDLKVDEEEVDSGQPVSIQAFASSSTLHGISHIFSYERLSLKRVVWALCFMGSLALLALVCTNRIQYYFLYPHVTKLDEVAATRLTFPAVTFCNLNEFRFSRVTKNDLYHAGELLALLNNRYEIPDTQTADEKQLEILQDKANFRNFKPKPFNMLEFYDRAGHDIREMLLSCFFRGEQCSPEDFKVVFTRYGKCYTFNAGQDGKPRLITMKGGTGNGLEIMLDIQQDEYLPVWGETDETSFEAGIKVQIHSQDEPPLIDQLGFGVAPGFQTFVSCQEQRLIYLPPPWGDCKATTGDSEFYDTYSITACRIDCETRYLVENCNCRMVHMPGDAPYCTPEQYKECADPALDFLVEKDNEYCVCEMPCNVTRYGKELSMVKIPSKASAKYLAKKYNKSEQYIGENILVLDIFFEALNYETIEQKKAYEVAGLLGDIGGQMGLFIGASILTVLELFDYAYEVIKHRLCRRGKCRKNHKRNNTDKGVALSMDDVKRHNPCESLRGHPAGMTYAANILPHHPARGTFEDFTC
notes: the final models contain residues 17-462; Homotrimer in SMA copolymer with endogenous lipids; Expression is 'as previously described (Yoder et al., 2018a)'; also called cASIC1-SMA; SMA-cASIC1a
stoichiometry N: 3
